Our source for the reported turnover number and turnover number values is patent US6682891B2, “Methods of identifying nucleic acid sequences encoding plant riboflavin synthase enzymes” (E. I. du Pont de Nemours and Company, priority 1997, dated 2004).

One data set has as its target E. coli LS (Escherichia coli, UniProt P61714). The settings on record: 37° C.; cited from earlier work.
Data set [1] relates to purified recombinant spinach RS. Briefly: Riboflavin synthase assay (riboflavin formation from DMRL, 470 nm). The format is biochemical, spinach (Spinacea oleracea). The settings on record: 25° C., based on protomer. The method, then:
Riboflavin synthase assays were run using 1-mL reaction mixtures containing 0.1 mM DMRL in 50 mM Tris-Cl (pH 7.5) at 25° C. Reactions were initiated by the addition of purified recombinant spinach RS and initial rates of the reactions were measured continuously at 470 nm. A molar extinction coefficient (ε) of 9500 at 470 nm was used to calculate the formation of riboflavin (Plaut, G. W. E. and Harvey, R. A., Methods in Enzymology (McCormick, D. B. and Wright L. D., eds.) vol. 18, part B, pp. 515-538, Academic Press, N.Y. (1971)).

A further data set concerns the target T1, B. subtilis RS (Bacillus subtilis, UniProt P16440).
T1 sequence (P16440 whole entry, looked up): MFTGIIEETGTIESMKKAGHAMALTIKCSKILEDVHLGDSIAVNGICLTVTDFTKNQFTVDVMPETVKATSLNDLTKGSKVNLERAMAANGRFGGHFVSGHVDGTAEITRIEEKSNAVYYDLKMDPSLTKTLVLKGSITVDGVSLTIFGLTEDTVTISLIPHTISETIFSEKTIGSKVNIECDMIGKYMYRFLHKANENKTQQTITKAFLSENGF
The settings on record: 37° C.; cited from earlier work.

Another data set has as its target yeast LS (Saccharomyces cerevisiae, UniProt P50861). The settings on record: 37° C.; cited from earlier work.
A further data set deals with T2, B. subtilis LS (Bacillus subtilis, UniProt P11998).
T2 sequence (P11998 whole entry, looked up): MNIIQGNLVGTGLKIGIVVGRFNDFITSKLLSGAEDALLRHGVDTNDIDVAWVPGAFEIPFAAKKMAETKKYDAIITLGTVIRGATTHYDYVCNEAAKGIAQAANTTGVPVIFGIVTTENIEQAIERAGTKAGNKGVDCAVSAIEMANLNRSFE
The settings on record: 37° C.; cited from earlier work.

The next data set addresses T3, S. cerevisiae RS (Saccharomyces cerevisiae, UniProt P38145).
T3 sequence (P38145 1-238): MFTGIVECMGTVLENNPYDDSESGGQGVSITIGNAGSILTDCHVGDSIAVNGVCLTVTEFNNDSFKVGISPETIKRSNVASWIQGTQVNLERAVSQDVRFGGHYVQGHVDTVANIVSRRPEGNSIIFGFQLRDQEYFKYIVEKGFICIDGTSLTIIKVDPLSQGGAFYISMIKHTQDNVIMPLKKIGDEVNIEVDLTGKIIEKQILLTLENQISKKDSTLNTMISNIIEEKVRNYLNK
The settings on record: 37° C.; cited from earlier work.

B1: E. coli LS: purified E. coli lumazine synthase, literature comparison (protein, UniProt P61714 1-156, looked up)
6,7-dimethyl-8-ribityllumazine …: MNIIEANVATPDARVAITIARFNNFINDSLLEGAIDALKRIGQVKDENITVVWVPGAYELPLAAGALAKTGKYDAVIALGTVIRGGTAHFEYVAGGASNGLAHVAQDSEIPVAFGVLTTESIEQAIERAGTKAGNKGAEAALTALEMINVLKAIKA
For the molecule B1, the reported turnover number with E. coli LS is 0.06 s⁻¹.

B2: recombinant spinach RS: purified recombinant mature spinach riboflavin synthase expressed in E. coli, without transit peptide (SEQ ID NO:8) (protein)
chain: MFTGIVEEIGRVKQMGYGEDGGFQLKVVGDIVLKDVNLGDSIAVNGTCLTVTEFDTKASEFTLGIAPETLRKTALMDLEPGSVVNLERALLPSTRMGGHFVQGHVDGTGEIVSLVEEGDSLWVKIKTSPEILRYIVPKGFIAIDGTSLTVVDVFDQELCFNIMLVAYTQQNVVIPLKKVGQKVNLEVDILGKYVERLLSSSGVLDPTKFT
Take B2: the turnover number entry in data set [1] is “approximately 0.08 /sec”.

B3: B. subtilis RS: B. subtilis riboflavin synthase, literature comparison (Bacher et al.) (protein, UniProt P16440 1-215, looked up)
Riboflavin synthase: T1 sequence (P16440 whole entry, looked up)
In the case of B3, in the data set with B. subtilis RS, the reported turnover number is 0.33 s⁻¹.

B4: yeast LS: purified yeast lumazine synthase, literature comparison (protein, UniProt P50861 1-169, looked up)
6,7-dimethyl-8-ribityllumazine …: MAVKGLGKPDQVYDGSKIRVGIIHARWNRVIIDALVKGAIERMASLGVEENNIIIETVPGSYELPWGTKRFVDRQAKLGKPLDVVIPIGVLIKGSTMHFEYISDSTTHALMNLQEKVDMPVIFGLLTCMTEEQALARAGIDEAHSMHNHGEDWGAAAVEMAVKFGKNAF
Consider B4, for which the reported turnover number with yeast LS was 0.06 s⁻¹.

B5: B. subtilis LS: purified B. subtilis lumazine synthase, literature comparison (protein, UniProt P11998 1-154, looked up)
6,7-dimethyl-8-ribityllumazine …: T2 sequence (P11998 whole entry, looked up)
Turning to B5, in the data set with B. subtilis LS, the reported turnover number was 0.06 s⁻¹.

B6: S. cerevisiae RS: yeast riboflavin synthase, literature comparison (Santos et al.) (protein, UniProt P38145 1-238, looked up)
Riboflavin synthase: T3 sequence (P38145 1-238)
In the case of B6, in the data set with S. cerevisiae RS, the reported turnover number is 0.13 s⁻¹.
